Data taken from publication PMC6215091.
Where two headings read alike, the source gives them in different places.

Columns and labels:
[1] = target: NaChBac (Bacillus halodurans)
[2] = target: NaChBac/G105A (Bacillus halodurans)
[3] = target: NaChBac/F108A (Bacillus halodurans)
[4] = target: NaChBac Q107A (Bacillus halodurans)
[5] = target: NaChBac F103A (Bacillus halodurans)
[6] = target: NaChBac V109A (Bacillus halodurans)
[7] = target: NaV1.5 (UniProt Q14524)
[8] = target: NaV1.3 (UniProt P08104)
[9] = target: NaV1.6 (UniProt Q9WTU3)
[10] = target: NaV1.2 (UniProt P04775)
[11] = target: NaV1.8/1.7L5 channel
[12] = target: NaV1.7 (UniProt Q15858)
[13] = target: NaV1.4 (UniProt P15390)
[14] = target: NaChBac (Bacillus halodurans); remark: listed apart in the source

Chain of UniProt Q14524 (Q14524 whole entry): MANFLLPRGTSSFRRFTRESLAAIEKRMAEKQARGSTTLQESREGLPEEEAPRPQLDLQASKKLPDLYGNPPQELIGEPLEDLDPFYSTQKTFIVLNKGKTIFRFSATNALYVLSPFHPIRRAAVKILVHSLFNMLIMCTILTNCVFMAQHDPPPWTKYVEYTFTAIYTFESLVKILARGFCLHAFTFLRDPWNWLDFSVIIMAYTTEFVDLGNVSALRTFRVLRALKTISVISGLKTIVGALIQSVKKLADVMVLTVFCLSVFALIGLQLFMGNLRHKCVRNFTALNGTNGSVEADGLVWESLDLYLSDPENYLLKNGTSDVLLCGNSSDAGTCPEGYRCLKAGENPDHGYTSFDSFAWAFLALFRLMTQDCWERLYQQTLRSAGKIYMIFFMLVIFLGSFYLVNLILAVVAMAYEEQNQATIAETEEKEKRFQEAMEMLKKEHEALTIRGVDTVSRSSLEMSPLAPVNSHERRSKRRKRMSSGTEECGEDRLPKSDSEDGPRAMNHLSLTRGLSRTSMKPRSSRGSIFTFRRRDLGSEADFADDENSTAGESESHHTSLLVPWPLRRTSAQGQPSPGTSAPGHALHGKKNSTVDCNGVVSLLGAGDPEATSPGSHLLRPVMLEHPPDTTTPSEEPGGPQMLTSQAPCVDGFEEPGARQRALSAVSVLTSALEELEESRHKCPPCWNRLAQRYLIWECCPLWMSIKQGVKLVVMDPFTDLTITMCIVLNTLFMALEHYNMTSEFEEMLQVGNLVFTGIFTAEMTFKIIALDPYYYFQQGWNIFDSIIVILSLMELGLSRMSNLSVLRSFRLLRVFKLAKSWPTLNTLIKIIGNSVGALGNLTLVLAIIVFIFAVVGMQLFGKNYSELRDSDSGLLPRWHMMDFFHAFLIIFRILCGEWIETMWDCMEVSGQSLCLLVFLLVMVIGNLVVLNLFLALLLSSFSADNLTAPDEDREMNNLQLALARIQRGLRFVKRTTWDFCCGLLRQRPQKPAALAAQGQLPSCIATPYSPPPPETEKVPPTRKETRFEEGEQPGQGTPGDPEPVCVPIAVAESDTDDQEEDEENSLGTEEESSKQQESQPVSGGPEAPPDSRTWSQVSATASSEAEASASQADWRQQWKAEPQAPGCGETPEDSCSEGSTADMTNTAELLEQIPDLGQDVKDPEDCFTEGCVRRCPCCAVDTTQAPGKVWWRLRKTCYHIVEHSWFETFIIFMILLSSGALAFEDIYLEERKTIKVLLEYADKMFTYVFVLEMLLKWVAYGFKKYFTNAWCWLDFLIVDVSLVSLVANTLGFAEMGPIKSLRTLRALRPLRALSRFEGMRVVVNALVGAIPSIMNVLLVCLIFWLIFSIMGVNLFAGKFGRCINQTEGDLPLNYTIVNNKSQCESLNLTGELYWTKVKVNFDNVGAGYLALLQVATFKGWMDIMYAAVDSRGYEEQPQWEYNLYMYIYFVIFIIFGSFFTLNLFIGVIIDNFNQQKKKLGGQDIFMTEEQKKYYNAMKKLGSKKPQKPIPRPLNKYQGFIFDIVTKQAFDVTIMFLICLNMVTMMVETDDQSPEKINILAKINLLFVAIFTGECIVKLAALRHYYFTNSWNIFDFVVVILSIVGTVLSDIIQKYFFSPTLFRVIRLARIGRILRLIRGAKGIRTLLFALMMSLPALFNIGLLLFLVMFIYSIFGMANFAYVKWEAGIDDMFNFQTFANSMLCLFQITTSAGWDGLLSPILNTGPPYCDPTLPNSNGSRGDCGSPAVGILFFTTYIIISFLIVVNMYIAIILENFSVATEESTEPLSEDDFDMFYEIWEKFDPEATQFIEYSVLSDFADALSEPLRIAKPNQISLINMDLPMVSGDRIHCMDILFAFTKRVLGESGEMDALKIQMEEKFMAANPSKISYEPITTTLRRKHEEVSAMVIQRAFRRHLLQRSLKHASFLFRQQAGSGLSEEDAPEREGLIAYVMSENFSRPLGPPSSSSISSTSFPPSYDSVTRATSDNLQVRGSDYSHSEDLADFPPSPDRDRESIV
Chain of UniProt P15390 (P15390 whole entry): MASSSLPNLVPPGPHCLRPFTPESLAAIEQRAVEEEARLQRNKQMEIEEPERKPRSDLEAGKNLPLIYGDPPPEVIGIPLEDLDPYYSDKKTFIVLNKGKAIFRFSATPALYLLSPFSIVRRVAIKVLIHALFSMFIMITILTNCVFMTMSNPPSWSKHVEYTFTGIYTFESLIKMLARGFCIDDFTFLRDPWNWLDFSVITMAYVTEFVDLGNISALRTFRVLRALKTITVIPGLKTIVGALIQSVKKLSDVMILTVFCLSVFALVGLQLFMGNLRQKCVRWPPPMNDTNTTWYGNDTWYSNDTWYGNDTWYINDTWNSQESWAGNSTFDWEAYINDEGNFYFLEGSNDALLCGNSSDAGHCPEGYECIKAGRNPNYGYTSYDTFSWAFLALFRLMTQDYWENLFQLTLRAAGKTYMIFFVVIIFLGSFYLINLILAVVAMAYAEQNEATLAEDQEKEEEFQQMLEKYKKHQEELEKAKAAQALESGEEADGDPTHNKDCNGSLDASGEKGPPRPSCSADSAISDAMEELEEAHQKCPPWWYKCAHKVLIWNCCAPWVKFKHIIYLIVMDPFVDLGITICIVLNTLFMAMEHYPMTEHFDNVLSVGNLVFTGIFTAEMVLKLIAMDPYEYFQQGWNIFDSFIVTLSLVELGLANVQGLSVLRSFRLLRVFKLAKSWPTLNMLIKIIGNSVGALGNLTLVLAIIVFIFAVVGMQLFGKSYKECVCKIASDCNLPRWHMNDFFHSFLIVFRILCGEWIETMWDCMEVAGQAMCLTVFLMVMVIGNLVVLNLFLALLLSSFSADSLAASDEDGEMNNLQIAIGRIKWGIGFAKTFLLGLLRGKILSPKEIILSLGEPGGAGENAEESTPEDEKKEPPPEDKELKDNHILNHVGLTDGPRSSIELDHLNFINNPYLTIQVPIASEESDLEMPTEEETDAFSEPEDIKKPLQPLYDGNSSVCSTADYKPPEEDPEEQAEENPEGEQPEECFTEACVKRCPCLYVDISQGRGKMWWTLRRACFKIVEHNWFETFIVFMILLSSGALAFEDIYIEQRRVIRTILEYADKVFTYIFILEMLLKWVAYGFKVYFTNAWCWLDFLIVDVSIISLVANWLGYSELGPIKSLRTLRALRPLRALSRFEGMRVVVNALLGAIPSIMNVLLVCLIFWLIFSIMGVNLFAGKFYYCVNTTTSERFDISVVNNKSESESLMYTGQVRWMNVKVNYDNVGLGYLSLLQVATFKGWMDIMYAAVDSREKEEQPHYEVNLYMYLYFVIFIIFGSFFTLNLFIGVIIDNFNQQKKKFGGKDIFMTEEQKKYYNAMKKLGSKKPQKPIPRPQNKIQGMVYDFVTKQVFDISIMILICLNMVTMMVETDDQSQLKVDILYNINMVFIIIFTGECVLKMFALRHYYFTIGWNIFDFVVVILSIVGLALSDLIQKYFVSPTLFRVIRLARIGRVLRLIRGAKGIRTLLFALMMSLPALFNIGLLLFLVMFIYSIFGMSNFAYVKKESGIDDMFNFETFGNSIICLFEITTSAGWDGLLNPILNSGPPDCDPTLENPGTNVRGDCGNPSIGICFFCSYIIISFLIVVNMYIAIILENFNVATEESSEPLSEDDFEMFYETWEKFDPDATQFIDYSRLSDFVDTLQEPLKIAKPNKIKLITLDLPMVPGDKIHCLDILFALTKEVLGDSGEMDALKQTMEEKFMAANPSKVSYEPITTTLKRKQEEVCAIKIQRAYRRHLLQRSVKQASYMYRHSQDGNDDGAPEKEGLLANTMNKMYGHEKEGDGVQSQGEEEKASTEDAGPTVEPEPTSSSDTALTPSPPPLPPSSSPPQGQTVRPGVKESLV

JZTx-14 (from UniProt B1P1C0 30-62) (peptide)
IC50 of inhibition of the current, whole-cell patch clamp, dose–response curve [1]: 320 nM
IC50 of inhibition of the current, whole-cell patch clamp, dose–response curve [2]: 653 nM
IC50 of inhibition of the current, whole-cell patch clamp, dose–response curve [3]: 3470 nM
IC50 of inhibition of the current, whole-cell patch clamp, dose–response curve [4]: 810 nM
IC50 of inhibition of the current, whole-cell patch clamp, dose–response curve [5]: 833 nM
IC50 of inhibition of the current, whole-cell patch clamp, dose–response curve [6]: 1370 nM
IC50 of inhibition of the peak current, whole-cell patch clamp, dose–response curve [7]: 478 nM
IC50 of inhibition of the peak current, whole-cell patch clamp, dose–response curve [8]: 426 nM
IC50 of inhibition of the peak current, whole-cell patch clamp, dose–response curve [9]: 159 nM
IC50 of inhibition of the peak current, whole-cell patch clamp, dose–response curve [10]: 194 nM
IC50 of inhibition of the peak current, whole-cell patch clamp, dose–response curve [11]: 824 nM
IC50 of inhibition of the peak current, whole-cell patch clamp, dose–response curve [12]: 189 nM
IC50 of inhibition of the peak current, whole-cell patch clamp, dose–response curve [13]: 290 nM

JZTx-27 (peptide)
IC50 of inhibition of the current, whole-cell patch clamp, dose–response curve [3]: 117 nM
IC50 of inhibition of the current, whole-cell patch clamp, dose–response curve [14]: 46.7 nM
